According to patent publication US20210253718A1, “FRIZZLED5 PROTEIN-BINDING AGENTS” (Modmab Therapeutics Corporation, priority 2016, published 2021):

T1: FZD3 CRD (Homo sapiens, UniProt Q9NPG1)
T1 construct: CRD of FZD1, FZD2, FZD3, FZD4, FZD5, FZD6, FZD7, FZD8, FZD9 or FZD10; GPI anchor signal (C); expressed in transfected cells; host or cells: CHO cells, lentiviral pLenti-puro
T1 sequence (Q9NPG1 23-136 limits assumed): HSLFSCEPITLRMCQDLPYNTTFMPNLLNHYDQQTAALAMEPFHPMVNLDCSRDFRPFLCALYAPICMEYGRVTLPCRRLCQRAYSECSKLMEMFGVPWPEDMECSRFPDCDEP

T2: FZD8 CRD (Homo sapiens, UniProt Q9H461)
T2 construct: K31-D155; GPI anchor signal (C); expressed in transfected cells; host or cells: CHO cells, lentiviral pLenti-puro
T2 sequence (Q9H461 31-155): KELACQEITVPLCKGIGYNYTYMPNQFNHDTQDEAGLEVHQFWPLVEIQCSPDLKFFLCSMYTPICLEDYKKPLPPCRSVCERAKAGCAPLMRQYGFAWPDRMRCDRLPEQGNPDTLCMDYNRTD


Assays:
HPAFII cells = test: Effect of anti-FZD5 Fabs on proliferation of pancreatic cancer cell lines (percent growth inhibition); assay type: cell-based, human; conditions: for percent growth inhibition, HPAFII 2 μg/ml: Fab 2 μg/ml; for percent growth inhibition, HPAFII 10 μg/ml: Fab 10 μg/ml
Protocol: (§1) The effect of presently disclosed anti-FZD5 Fabs on proliferation of RNF43 loss-of-function mutant pancreatic cancer cell lines HPAFII, PATU8988S and ASPC-1; and on pancreatic cancer cell line RWP1, was tested at […] and 10 μg/ml.

PATU8988S cells [1] = test: as above; assay type: cell-based, human; conditions: Fab 10 μg/ml
Protocol: as §1

RWP1 cells [2] = test: as above; assay type: cell-based, human; conditions: Fab 10 μg/ml
Protocol: as §1

ASPC-1 cells [3] = test: as above; assay type: cell-based, human; conditions: Fab 10 μg/ml
Protocol: as §1

RWP1 cells [4] = test: as above; assay type: cell-based, human; conditions: Fab 2 μg/ml
FZD7 CRD = target: T3, FZD7 CRD (Homo sapiens, UniProt O75084); test: Immunofluorescence of anti-FZD5 Fab binding to CHO cells overexpressing Frizzled CRD; parameters: key: −: no binding; +: very weak binder; ++: weak binder; +++: good binder; ++++: very good binder
T3 construct: D45-S169; GPI anchor signal (C); expressed in transfected cells; host or cells: CHO cells, lentiviral pLenti-puro
Method in brief: (§2)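 CHO lines each stably expressing one human Frizzled CRD as a myc-tagged, GPI-anchored cell-surface cassette (FZD_CRD-MYC-GPI, lentiviral pLenti-puro) were probed with anti-FZD5 Fabs. Binding was read by immunofluorescence, alongside flow cytometry, across the 10-member panel.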

FZD3 CRD = target: T1, FZD3 CRD; test: as above; parameters: key: −: no binding; +: very weak binder; ++: weak binder; +++: good binder; ++++: very good binder
Method in brief: as §2

FZD8 CRD = target: T2, FZD8 CRD; test: as above; parameters: key: −: no binding; +: very weak binder; ++: weak binder; +++: good binder; ++++: very good binder
Method in brief: as §2

[5] = system: CHO cells not expressing Frizzled CRD; test: Flow cytometry of anti-FZD5 Fab binding to CHO cells not expressing Frizzled CRD (background)
Excerpt: The binding of anti-FZD5 Fabs to cell surface-expressed Frizzled protein was further determined for each member of the Frizzled family via flow cytometry and immunofluorescence analysis of a panel of 10 CHO cell lines, each ectopically over-expressing the extracellular cysteine-rich domain (CRD) of a different Frizzled protein family member.

PATU8988S cells [6] = test: Effect of anti-FZD5 Fabs on proliferation of pancreatic cancer cell lines (percent growth inhibition); assay type: cell-based, human; conditions: Fab 2 μg/ml
ASPC-1 cells [7] = test: as above; assay type: cell-based, human; conditions: Fab 2 μg/ml

Molecule | Immunofluorescence binding, Frizzled CRD overexpressed on CHO cells: FZD7 (FZD7 CRD) | Immunofluorescence binding, Frizzled CRD overexpressed on CHO cells: FZD3 (FZD3 CRD) | Immunofluorescence binding, Frizzled CRD overexpressed on CHO cells: FZD8 (FZD8 CRD) | percent growth inhibition, HPAFII 2 μg/ml (HPAFII cells) | percent growth inhibition, HPAFII 10 μg/ml (HPAFII cells) | percent growth inhibition, PATU8988s 10 μg/ml (PATU8988S cells [1]) | percent growth inhibition, RWP1 10 μg/ml (RWP1 cells [2]) | percent growth inhibition, ASPC-1 10 μg/ml (ASPC-1 cells [3]) | percent growth inhibition, RWP1 2 μg/ml (RWP1 cells [4]) | Median fluorescence, Frizzled CRD overexpressed on CHO cells: None [5] | percent growth inhibition, PATU8988s 2 μg/ml (PATU8988S cells [6]) | percent growth inhibition, ASPC-1 2 μg/ml (ASPC-1 cells [7])
Fab-2922: anti-FZD5 Fab with antibody variable region Fv-2922; CDR SEQ ID NOs: 35, 36, 61, 99, 137, 171 (antibody, V domains shown) VH: EVQLVESGGGLVQPGGSLRLSCAASGFNIYSSYMHWVRQAPGKGLEWVASISPYSGYTSYADSVKGRFTISADTSKNTAYLQMNSLRAEDTAVYYCARTVRGSKKPYFSGWAMDYWGQGTLVTVSS VL: DIQMTQSPSSLSASVGDRVTITCRASQSVSSAVAWYQQKPGKAPKLLIYSASSLYSGVPSRFSGSRSGTDFTLTISSLQPEDFATYYCQQSFVYPYLITFGQGTKVEIK | − | − | + | 8.28% | 8.14% | −24.14% | 7.59% | 27.72% | −6.96% | 3.89 | 9.16% | 14.47%
Fab-2929: anti-FZD5 Fab with antibody variable region Fv-2929; CDR SEQ ID NOs: 35, 36, 68, 106, 144, 162 (antibody, V domains shown) VH: EVQLVESGGGLVQPGGSLRLSCAASGFNISYYYIHWVRQAPGKGLEWVASIYPSSSSTSYADSVKGRFTISADTSKNTAYLQMNSLRAEDTAVYYCARGAMDYWGQGTLVTVSS VL: DIQMTQSPSSLSASVGDRVTITCRASQSVSSAVAWYQQKPGKAPKLLIYSASSLYSGVPSRFSGSRSGTDFTLTISSLQPEDFATYYCQQWYSSYGLITFGQGTKVEIK | + | − | − | 20.20% | 33.42% | −27.58% | 2.21% | 41.25% | 0.41% | 3.19 | −24.05% | 41.68%
Fab-2928: anti-FZD5 Fab with antibody variable region Fv-2928; CDR SEQ ID NOs: 35, 36, 67, 105, 143, 175 (antibody, V domains shown) VH: EVQLVESGGGLVQPGGSLRLSCAASGFNISYSSIHWVRQAPGKGLEWVASIYPSYSSTYYADSVKGRFTISADTSKNTAYLQMNSLRAEDTAVYYCARYYAMDYWGQGTLVTVSS VL: DIQMTQSPSSLSASVGDRVTITCRASQSVSSAVAWYQQKPGKAPKLLIYSASSLYSGVPSRFSGSRSGTDFTLTISSLQPEDFATYYCQQAFYYPITFGQGTKVEIK | − | − | − | −17.90% | −25.51% | −30.22% | 32.47% | 6.27% | −8.19% | 3.68 | −2.11% | 2.33%

The next lines start with results.

Immunofluorescence binding, Frizzled CRD overexpressed on CHO cells: FZD7 (FZD7 CRD) | Immunofluorescence binding, Frizzled CRD overexpressed on CHO cells: FZD3 (FZD3 CRD) | Immunofluorescence binding, Frizzled CRD overexpressed on CHO cells: FZD8 (FZD8 CRD) | Molecule | percent growth inhibition, HPAFII 2 μg/ml (HPAFII cells) | percent growth inhibition, HPAFII 10 μg/ml (HPAFII cells) | percent growth inhibition, PATU8988s 10 μg/ml (PATU8988S cells [1]) | percent growth inhibition, RWP1 10 μg/ml (RWP1 cells [2]) | percent growth inhibition, ASPC-1 10 μg/ml (ASPC-1 cells [3]) | percent growth inhibition, RWP1 2 μg/ml (RWP1 cells [4]) | Median fluorescence, Frizzled CRD overexpressed on CHO cells: None [5] | percent growth inhibition, PATU8988s 2 μg/ml (PATU8988S cells [6]) | percent growth inhibition, ASPC-1 2 μg/ml (ASPC-1 cells [7])
++ | − | − | Fab-2925: anti-FZD5 Fab with antibody variable region Fv-2925; CDR SEQ ID NOs: 35, 36, 64, 102, 140, 172 (antibody, V domains shown) VH: EVQLVESGGGLVQPGGSLRLSCAASGFNLSYSSMHWVRQAPGKGLEWVASIYPSYGSTYYADSVKGRFTISADTSKNTAYLQMNSLRAEDTAVYYCARYGYFGLDYWGQGTLVTVSS VL: DIQMTQSPSSLSASVGDRVTITCRASQSVSSAVAWYQQKPGKAPKLLIYSASSLYSGVPSRFSGSRSGTDFTLTISSLQPEDFATYYCQQAWVYASLFTFGQGTKVEIK | −11.24% | −17.38% | −22.86% | 33.53% | −3.44% | 30.69% | 3.55 | −8.12% | −0.26%
− | − | + | Fab-2924: anti-FZD5 Fab with antibody variable region Fv-2924; CDR SEQ ID NOs: 35, 36, 63, 101, 139, 153 (antibody, V domains shown) VH: EVQLVESGGGLVQPGGSLRLSCAASGFNISYSYIHWVRQAPGKGLEWVASIYSYYSSTSYADSVKGRFTISADTSKNTAYLQMNSLRAEDTAVYYCARGALDYWGQGTLVTVSS VL: DIQMTQSPSSLSASVGDRVTITCRASQSVSSAVAWYQQKPGKAPKLLIYSASSLYSGVPSRFSGSRSGTDFTLTISSLQPEDFATYYCQQWYSGHSLITFGQGTKVEIK | −10.43% | −5.35% | −21.08% | 48.95% | 16.29% | 42.76% | 4.1 | −16.11% | 8.55%
++++ | − | + | Fab-2927: anti-FZD5 Fab with antibody variable region Fv-2927; CDR SEQ ID NOs: 35, 36, 66, 104, 142, 174 (antibody, V domains shown) VH: EVQLVESGGGLVQPGGSLRLSCAASGFNIYYSSMHWVRQAPGKGLEWVASIYPSYGYTSYADSVKGRFTISADTSKNTAYLQMNSLRAEDTAVYYCARYGYYGFDYWGQGTLVTVSS VL: DIQMTQSPSSLSASVGDRVTITCRASQSVSSAVAWYQQKPGKAPKLLIYSASSLYSGVPSRFSGSRSGTDFTLTISSLQPEDFATYYCQQWGSHGYLITFGQGTKVEIK | 6.46% | −7.63% | −23.95% | 70.38% | 31.00% | 46.02% | 3.79 | −15.15% | 12.47%
